Results from publication PMC10940162.

Biological target: porcine brain tubulin (microtubules) (porcine)
Assay: microtubule-capping assay with TIRF microscopy; Taxol-, docetaxel- or GMPCPP-stabilized microtubules held on the coverslip through biotin–neutravidin; γ-TuC (GCP3–GFP) in solution; 5 µM tubulin, 50 mM KCl, MRB80, 30 °C; capped if γ-TuC stayed bound for at least 2 min

capping efficiency (percent of minus ends capped by γ-TuC): 30 to 60%
Substance: γ-tubulin-containing complexes (complete and incomplete γ-TuRC) purified using GCP3–GFP–SII (from UniProt Q96CW5 1-907; Q9BSJ2 1-902; Q9UGJ1 1-667; Q96RT8 1-1024; Q96RT7 1-1819; P23258 1-451)
